Series [1] has as its system COc1ccc2c(CC(=O)N[C@H](CCCNC(=N)N)C(=O)N3CCC[C@H]3C(=O)N[C@@H](CC(C)C)C(=O)NCC(=O)N[C@@H](CCCCOCc3ccccc3)C(=O)N[C@@H](CNc3ccc([N+](=O)[O-])cc3[N+](=O)[O-])C(=O)N[C@@H](C)C(=O)N[C@H](CCCNC(=N)N)C(=O)N[C@H](CCC(=O)O)C(=O)N[C@H](CCCNC(=N)N)C(N)=O)cc(=O)oc2c1. The series is described as follows: Km and kcat/Km of substrates with MMP-13. The series is classed as biochemical. Particulars: other: substrate cleavage by MMP-13.

In series [2] the test system is COc1ccc2c(CC(=O)N[C@H](CCCNC(=N)N)C(=O)N3CCC[C@H]3C(=O)N[C@@H](CC(C)C)C(=O)NCC(=O)N[C@@H](CCCCOc3ccccc3)C(=O)N[C@@H](CNc3ccc([N+](=O)[O-])cc3[N+](=O)[O-])C(=O)N[C@@H](C)C(=O)N[C@H](CCCNC(=N)N)C(=O)N[C@H](CCC(=O)O)C(=O)N[C@H](CCCNC(=N)N)C(N)=O)cc(=O)oc2c1. The series is described as follows: Km and kcat/Km of substrates with MMP-13. Format: biochemical. Particulars: other: substrate cleavage by MMP-13.

The test system of series [3] is COc1ccc2c(CC(=O)N[C@@H](CCCNC(=N)N)C(=O)N3CCC[C@H]3C(=O)N[C@@H](CC(C)C)C(=O)NCC(=O)N[C@@H](CCCCOCc3ccccc3)C(=O)N[C@@H](CNc3ccc([N+](=O)[O-])cc3[N+](=O)[O-])C(=O)N[C@@H](C)C(=O)N[C@@H](CCCNC(=N)N)C(=O)N[C@@H](CCC(=O)O)C(=O)N[C@@H](CCCNC(=N)N)C(N)=O)cc(=O)oc2c1. As to the kind of experiment: Km and kcat/Km of substrates with MMP-13. The series is classed as biochemical. Particulars: other: substrate cleavage by MMP-13.

The subject of series [4] is COc1ccc2c(CC(=O)N[C@@H](CCCNC(=N)N)C(=O)N3CCC[C@@H]3C(=O)N[C@@H](CC(C)C)C(=O)NCC(=O)N[C@@H](CC(C)C)C(=O)N[C@H](CNc3ccc([N+](=O)[O-])cc3[N+](=O)[O-])C(=O)N[C@@H](C)C(=O)N[C@H](CCCNC(=N)N)C(=O)N[C@@H](CCC(=O)O)C(=O)N[C@H](CCCNC(=N)N)C(N)=O)cc(=O)oc2c1. The series is described as follows: Km and kcat/Km of substrates with MMP-13. The conditions noted are these: other: substrate cleavage by MMP-13. The series is classed as biochemical.

Series [5] relates to COc1ccc2c(CC(=O)N[C@H](CCCNC(=N)N)C(=O)N3CCC[C@H]3C(=O)N[C@@H](CC(C)C)C(=O)NCC(=O)N[C@@H](CCCCOCc3ccccc3)C(=O)N[C@@H](CNc3ccc([N+](=O)[O-])cc3[N+](=O)[O-])C(=O)N[C@@H](C)C(=O)N[C@H](CCCNC(=N)N)C(=O)N[C@H](CCC(=O)O)C(=O)N[C@H](CCCNC(=N)N)C(N)=O)cc(=O)oc2c1. As to the kind of experiment: Km and kcat/Km of substrates with MMP-3. The conditions noted are these: other: substrate cleavage by MMP-3. Format: biochemical.

The subject of series [6] is COc1ccc2c(CC(=O)N[C@@H](CCCNC(=N)N)C(=O)N3CCC[C@H]3C(=O)N[C@@H](CC(C)C)C(=O)NCC(=O)N[C@@H](CCCCOCc3ccccc3)C(=O)N[C@@H](CNc3ccc([N+](=O)[O-])cc3[N+](=O)[O-])C(=O)N[C@@H](C)C(=O)N[C@@H](CCCNC(=N)N)C(=O)N[C@@H](CCC(=O)O)C(=O)N[C@@H](CCCNC(=N)N)C(N)=O)cc(=O)oc2c1. As to the kind of experiment: Km and kcat/Km of substrates with MMP-3. Particulars: other: substrate cleavage by MMP-3. Format: biochemical.

Series [7] deals with COc1ccc2c(CC(=O)N[C@@H](CCCNC(=N)N)C(=O)N3CCC[C@@H]3C(=O)N[C@@H](CC(C)C)C(=O)NCC(=O)N[C@@H](CC(C)C)C(=O)N[C@H](CNc3ccc([N+](=O)[O-])cc3[N+](=O)[O-])C(=O)N[C@@H](C)C(=O)N[C@H](CCCNC(=N)N)C(=O)N[C@@H](CCC(=O)O)C(=O)N[C@H](CCCNC(=N)N)C(N)=O)cc(=O)oc2c1. As to the kind of experiment: Km and kcat/Km of substrates with MMP-3. Particulars: other: substrate cleavage by MMP-3. The series is classed as biochemical.

In series [8] the test system is COc1ccc2c(CC(=O)N[C@H](CCCNC(=N)N)C(=O)N3CCC[C@H]3C(=O)N[C@@H](CC(C)C)C(=O)NCC(=O)N[C@@H](CCCCOCc3ccccc3)C(=O)N[C@@H](CNc3ccc([N+](=O)[O-])cc3[N+](=O)[O-])C(=O)N[C@@H](C)C(=O)N[C@H](CCCNC(=N)N)C(=O)N[C@H](CCC(=O)O)C(=O)N[C@H](CCCNC(=N)N)C(N)=O)cc(=O)oc2c1. The series is described as follows: Km and kcat/Km of substrates with MMP-8. Format: biochemical. Particulars: other: substrate cleavage by MMP-8.

The test system of series [9] is COc1ccc2c(CC(=O)N[C@H](CCCNC(=N)N)C(=O)N3CCC[C@H]3C(=O)N[C@@H](CC(C)C)C(=O)NCC(=O)N[C@@H](CCCCOc3ccccc3)C(=O)N[C@@H](CNc3ccc([N+](=O)[O-])cc3[N+](=O)[O-])C(=O)N[C@@H](C)C(=O)N[C@H](CCCNC(=N)N)C(=O)N[C@H](CCC(=O)O)C(=O)N[C@H](CCCNC(=N)N)C(N)=O)cc(=O)oc2c1. As to the kind of experiment: Km and kcat/Km of substrates with MMP-8. Format: biochemical. Particulars: other: substrate cleavage by MMP-8.

Series [10] relates to COc1ccc2c(CC(=O)N[C@@H](CCCNC(=N)N)C(=O)N3CCC[C@H]3C(=O)N[C@@H](CC(C)C)C(=O)NCC(=O)N[C@@H](CCCCOCc3ccccc3)C(=O)N[C@@H](CNc3ccc([N+](=O)[O-])cc3[N+](=O)[O-])C(=O)N[C@@H](C)C(=O)N[C@@H](CCCNC(=N)N)C(=O)N[C@@H](CCC(=O)O)C(=O)N[C@@H](CCCNC(=N)N)C(N)=O)cc(=O)oc2c1. As to the kind of experiment: Km and kcat/Km of substrates with MMP-8. Format: biochemical. Particulars: other: substrate cleavage by MMP-8.

For series [11], the system named is COc1ccc2c(CC(=O)N[C@@H](CCCNC(=N)N)C(=O)N3CCC[C@@H]3C(=O)N[C@@H](CC(C)C)C(=O)NCC(=O)N[C@@H](CC(C)C)C(=O)N[C@H](CNc3ccc([N+](=O)[O-])cc3[N+](=O)[O-])C(=O)N[C@@H](C)C(=O)N[C@H](CCCNC(=N)N)C(=O)N[C@@H](CCC(=O)O)C(=O)N[C@H](CCCNC(=N)N)C(N)=O)cc(=O)oc2c1. As to the kind of experiment: Km and kcat/Km of substrates with MMP-8. Particulars: other: substrate cleavage by MMP-8. Format: biochemical.

In series [12] the test system is COc1ccc2c(CC(=O)N[C@H](CCCNC(=N)N)C(=O)N3CCC[C@H]3C(=O)N[C@@H](CC(C)C)C(=O)NCC(=O)N[C@@H](CCCCOCc3ccccc3)C(=O)N[C@@H](CNc3ccc([N+](=O)[O-])cc3[N+](=O)[O-])C(=O)N[C@@H](C)C(=O)N[C@H](CCCNC(=N)N)C(=O)N[C@H](CCC(=O)O)C(=O)N[C@H](CCCNC(=N)N)C(N)=O)cc(=O)oc2c1. As to the kind of experiment: purified protein, by the assay type. Particulars: other: substrate cleavage by MMP-14.

In series [13] the test system is COc1ccc2c(CC(=O)N[C@H](CCCNC(=N)N)C(=O)N3CCC[C@H]3C(=O)N[C@@H](CC(C)C)C(=O)NCC(=O)N[C@@H](CCCCOc3ccccc3)C(=O)N[C@@H](CNc3ccc([N+](=O)[O-])cc3[N+](=O)[O-])C(=O)N[C@@H](C)C(=O)N[C@H](CCCNC(=N)N)C(=O)N[C@H](CCC(=O)O)C(=O)N[C@H](CCCNC(=N)N)C(N)=O)cc(=O)oc2c1. The series is described as follows: purified protein, by the assay type. The conditions noted are these: other: substrate cleavage by MMP-14.

Series [14] relates to COc1ccc2c(CC(=O)N[C@@H](CCCNC(=N)N)C(=O)N3CCC[C@H]3C(=O)N[C@@H](CC(C)C)C(=O)NCC(=O)N[C@@H](CCCCOCc3ccccc3)C(=O)N[C@@H](CNc3ccc([N+](=O)[O-])cc3[N+](=O)[O-])C(=O)N[C@@H](C)C(=O)N[C@@H](CCCNC(=N)N)C(=O)N[C@@H](CCC(=O)O)C(=O)N[C@@H](CCCNC(=N)N)C(N)=O)cc(=O)oc2c1. As to the kind of experiment: purified protein, by the assay type. Particulars: other: substrate cleavage by MMP-14.
Series [15] has as its system COc1ccc2c(CC(=O)N[C@@H](CCCNC(=N)N)C(=O)N3CCC[C@@H]3C(=O)N[C@@H](CC(C)C)C(=O)NCC(=O)N[C@@H](CC(C)C)C(=O)N[C@H](CNc3ccc([N+](=O)[O-])cc3[N+](=O)[O-])C(=O)N[C@@H](C)C(=O)N[C@H](CCCNC(=N)N)C(=O)N[C@@H](CCC(=O)O)C(=O)N[C@H](CCCNC(=N)N)C(N)=O)cc(=O)oc2c1. As to the kind of experiment: purified protein, by the assay type. The conditions noted are these: other: substrate cleavage by MMP-14.

Sequence of MMP-3 (Homo sapiens) (chain, as listed by the source): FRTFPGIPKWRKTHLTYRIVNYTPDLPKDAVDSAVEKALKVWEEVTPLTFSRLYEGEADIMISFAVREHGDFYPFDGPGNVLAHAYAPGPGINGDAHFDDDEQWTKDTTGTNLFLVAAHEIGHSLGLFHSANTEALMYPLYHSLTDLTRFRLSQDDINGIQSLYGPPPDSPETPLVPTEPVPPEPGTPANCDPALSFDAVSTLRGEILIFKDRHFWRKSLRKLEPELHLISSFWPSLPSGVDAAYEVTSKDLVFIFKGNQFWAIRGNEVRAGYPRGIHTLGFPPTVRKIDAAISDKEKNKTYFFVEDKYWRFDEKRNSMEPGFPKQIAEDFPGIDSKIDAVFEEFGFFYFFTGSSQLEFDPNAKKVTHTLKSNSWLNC
Sequence of MMP-8 (Homo sapiens) (chain, as listed by the source): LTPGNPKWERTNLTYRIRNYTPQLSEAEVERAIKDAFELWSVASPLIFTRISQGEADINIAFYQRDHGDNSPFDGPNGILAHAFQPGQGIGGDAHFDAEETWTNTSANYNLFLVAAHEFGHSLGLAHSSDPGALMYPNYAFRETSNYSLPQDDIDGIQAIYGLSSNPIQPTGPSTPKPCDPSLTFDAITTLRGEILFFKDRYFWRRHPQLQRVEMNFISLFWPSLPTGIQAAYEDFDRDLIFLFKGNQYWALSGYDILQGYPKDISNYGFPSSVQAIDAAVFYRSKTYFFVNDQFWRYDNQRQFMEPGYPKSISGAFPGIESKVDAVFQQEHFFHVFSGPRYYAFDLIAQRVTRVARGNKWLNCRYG

The term Km denotes the substrate concentration at which the rate is half of its maximum. As for MMP-13 (Homo sapiens), the Michaelis-Menten constant (Km) was 1.5 µM in series [1], 1.2 µM in series [2], 0.9 µM in series [3] and 9 µM in series [4]. In addition, the kcat/Km in series [1] worked out at 158 M^−1s^−1×10^4; in [2] it was 293 M^−1s^−1×10^4; in [3], 424 M^−1s^−1×10^4; in series [4], 29.6 M^−1s^−1×10^4.

Take MMP-3 (Homo sapiens): the Km in series [5] came to 28.9 µM; in series [6], 85.9 µM; in series [7], 14 µM. The kcat/Km in [5] was determined as 0.16 M^−1s^−1×10^4; in [6] it was 0.48 M^−1s^−1×10^4; in series [7], 0.63 M^−1s^−1×10^4.

Take MMP-8 (Homo sapiens): the Km is 3.3 µM in series [8], 4.4 µM in series [9], 9.1 µM in series [10] and 16.7 µM in [11]. In addition, the kcat/Km was 14.6 M^−1s^−1×10^4 in series [8], 52.2 M^−1s^−1×10^4 in series [9], 17.9 M^−1s^−1×10^4 in series [10] and 13.9 M^−1s^−1×10^4 in [11].

Turning to MMP-14 (Homo sapiens), the Michaelis-Menten constant (Km) is 23.7 µM in series [12], 7.4 µM in [13], 12 µM in [14] and 27.2 µM in series [15]. The kcat/Km in series [12] came out at 5.09 M^−1s^−1×10^4; in series [13], 15.5 M^−1s^−1×10^4; in series [14] it was 8.3 M^−1s^−1×10^4; in series [15] it was 4.1 M^−1s^−1×10^4.

(Values after patent US20040018561A1, “Peptide compounds and their use as protease substrates” (priority 2002, published 2004).)
